Assay results reported in PMC9563779.

Target: Oslo-2 mAb
Test: peptide array on cellulose membrane (epitope mapping)
Settings: chain shown with the change; duplicates; parent: est. 12000; read off a plot

Chain of Oslo-2 mAb (chain, as listed by the source, chain 1 of 2): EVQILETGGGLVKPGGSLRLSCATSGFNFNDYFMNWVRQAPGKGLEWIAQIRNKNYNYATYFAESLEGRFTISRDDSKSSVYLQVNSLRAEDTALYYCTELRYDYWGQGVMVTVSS
Chain of Oslo-2 mAb (chain, as listed by the source, chain 2 of 2): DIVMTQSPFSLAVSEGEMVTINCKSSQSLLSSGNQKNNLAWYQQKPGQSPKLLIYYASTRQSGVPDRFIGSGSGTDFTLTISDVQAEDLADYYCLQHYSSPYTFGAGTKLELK

Binder: GVKPDLSYMPIWKFPDAAGA [20 mer epitope peptide … (region 603-622 in HER2) E619A; E620A]
- response: 1700
